Drawing on patent publication US20230167164A1, this text covers PD-L1 expression induced on HEK-CD4-IFN-γ cells, MFI of anti-PD-L1 APC staining and PD-L1 expression induced on HEK-IFN-γ cells, MFI of anti-PD-L1 APC staining for one substance.

The target in the test is IFN-γ receptor (UniProt P15260). Briefly: cell-based or functional assay.
IFN-γ receptor, sequence (P15260 18-489 limits assumed, chain 1 of 2): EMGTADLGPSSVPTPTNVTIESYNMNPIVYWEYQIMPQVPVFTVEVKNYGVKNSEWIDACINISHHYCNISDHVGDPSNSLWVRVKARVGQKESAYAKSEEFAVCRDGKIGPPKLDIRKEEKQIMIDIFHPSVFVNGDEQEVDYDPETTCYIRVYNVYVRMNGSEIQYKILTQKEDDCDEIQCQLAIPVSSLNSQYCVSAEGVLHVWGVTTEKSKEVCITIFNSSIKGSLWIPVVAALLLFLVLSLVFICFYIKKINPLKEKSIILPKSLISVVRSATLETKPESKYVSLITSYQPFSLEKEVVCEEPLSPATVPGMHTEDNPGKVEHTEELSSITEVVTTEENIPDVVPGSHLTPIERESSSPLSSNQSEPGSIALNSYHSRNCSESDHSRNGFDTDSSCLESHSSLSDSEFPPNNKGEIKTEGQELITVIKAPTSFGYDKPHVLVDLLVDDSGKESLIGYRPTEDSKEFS
IFN-γ receptor, sequence (P38484 22-337 limits assumed, chain 2 of 2, further chain): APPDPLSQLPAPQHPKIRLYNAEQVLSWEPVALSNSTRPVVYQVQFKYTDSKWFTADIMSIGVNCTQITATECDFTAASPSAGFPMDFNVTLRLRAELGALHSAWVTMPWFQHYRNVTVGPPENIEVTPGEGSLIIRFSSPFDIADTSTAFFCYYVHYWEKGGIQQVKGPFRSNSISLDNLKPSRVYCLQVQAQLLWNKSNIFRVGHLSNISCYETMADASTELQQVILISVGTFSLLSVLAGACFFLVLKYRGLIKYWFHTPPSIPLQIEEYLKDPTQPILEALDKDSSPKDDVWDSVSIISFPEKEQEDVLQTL

Substance “recombinant IFN-γ (free state) (from UniProt P01579 24-166) (ligand)” returned a PD-L1 expression induced on HEK-CD4-IFN-γ cells, MFI of anti-PD-L1 APC staining of 67 MFI and a PD-L1 expression induced on HEK-IFN-γ cells, MFI of anti-PD-L1 APC staining of 75 MFI.
